The text below walks through data of doi:10.1101/435008 (bioRxiv, 2019).

This series deals with the molecule itself. The experiment in a line: SEC. In general terms: Size exclusion chromatography separates by hydrodynamic size, large species first.

What is called stoichiometry N is the number of molecules, sites or subunits per partner or assembly.

B1: unphosphorylated kinase domain of With No Lysine(K) kinase-3 (WNK3) (domain or fragment)
chain: not shown
Turning to B1, the “stoichiometry N” value worked out at 2.
